Laboratory results from US20130330346A1 (Novartis, published 2013).
Where two headings read alike, the source gives them in different places. Ends that are not written are not given here.

T1: Human CXCR2 (human, UniProt P25025 1-360)
T1 construct: Some cell lines carry an N-terminal 3xHA tag; also called hCXCR2; huCXCR2
T1 sequence: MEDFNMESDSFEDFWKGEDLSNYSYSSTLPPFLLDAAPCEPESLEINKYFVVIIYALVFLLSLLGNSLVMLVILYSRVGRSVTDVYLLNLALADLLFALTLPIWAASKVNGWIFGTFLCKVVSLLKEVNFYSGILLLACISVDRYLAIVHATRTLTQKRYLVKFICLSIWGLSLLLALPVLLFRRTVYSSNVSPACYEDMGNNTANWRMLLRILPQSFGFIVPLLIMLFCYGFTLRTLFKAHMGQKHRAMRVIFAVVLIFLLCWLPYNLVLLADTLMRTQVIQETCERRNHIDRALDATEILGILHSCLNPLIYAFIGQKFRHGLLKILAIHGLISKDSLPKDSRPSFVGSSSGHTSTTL

T2: Human 1to19 peptide (human)
T2 construct: First 19 N-terminal amino acids of human CXCR2, captured on neutravidin; also called human CXCR2 1 to19 peptide; 1-19 Nter peptide
T2 peptide: MEDFNMESDSFEDFWKGED-biotin

T3: Cynomolgus CXCR2 (cynomolgus, UniProt Q28519 3-353 (rhesus entry))
T3 chain: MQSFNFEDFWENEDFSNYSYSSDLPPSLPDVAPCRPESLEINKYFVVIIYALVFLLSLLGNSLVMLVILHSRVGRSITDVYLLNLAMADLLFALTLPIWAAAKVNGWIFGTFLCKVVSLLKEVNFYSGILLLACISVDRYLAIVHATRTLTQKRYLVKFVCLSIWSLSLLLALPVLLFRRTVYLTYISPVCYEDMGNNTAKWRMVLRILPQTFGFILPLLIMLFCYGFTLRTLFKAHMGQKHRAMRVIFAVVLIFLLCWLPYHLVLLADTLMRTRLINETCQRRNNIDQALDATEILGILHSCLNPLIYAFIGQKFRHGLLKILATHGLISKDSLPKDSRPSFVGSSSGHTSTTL


Columns and labels:
[1] = biological target: T1, Human CXCR2; assay: FACS, periplasmic extract vs FMAT Blue Gro-α
Description: Periplasmic extracts (as described above) were analyzed on FACS for competition with Gro-α in binding to human CXCR2. 2×10⁵ cells were incubated with a ½ dilution of periplasmic extracts in FACS buffer (PBS+10% fetal bovine serum (Sigma, F7524)) for 30 minutes at 4° C. Then, an equal volume of 6 nM of FMAT Blue-labeled human Gro-α in FACS buffer was added and incubation was continued for another 30 minutes at 4° C. in the dark. Cells were then washed three times in FACS buffer and finally resuspended in FACS buffer. Dead cells were stained with propidium iodide (Sigma, P4170). Samples were then analyzed on a FACSarray (BD Biosciences).

[2] = biological target: T2, Human 1to19 peptide; assay: ELISA, periplasmic extract on biotinylated peptide
Description: In another setup, periplasmic extracts were analyzed for binding to human 1 to 19 peptide by ELISA. MaxiSorb plates (Nunc, 430341) were coated for two hours with neutravidin followed by one hour blocking (PBS, 1% casein). Then 100 nM biotinylated human 1 to 19 peptide was added to these plates for one hour (PBS, 0.1% casein, 0.05% tween20) followed by one hour incubation with 10-fold dilutions of periplasmic extracts. Unbound periplasmic extracts were washed away (PBS supplemented with 0.05% tween20) and bound Nanobodies were detected using mouse anti-myc (Roche, 11667149001) followed by rabbit anti-mouse-HRP conjugate (Dakocytomation, P0260). Table 8 summarizes the ratios of the binding signals of anti-CXCR2Nanobodies over an irrelevant control Nanobody.

[3] = biological target: T1, Human CXCR2; assay: cell-based or functional assay
[4] = biological target: T3, Cynomolgus CXCR2; assay: cell-based or functional assay
[5] = biological target: T1, Human CXCR2; assay: cell-based or functional assay; remark: listed apart in the source
[6] = biological target: T1, Human CXCR2; assay: cell-based or functional assay; remark: listed apart in the source
[7] = biological target: T3, Cynomolgus CXCR2; assay: cell-based or functional assay
[8] = biological target: T1, Human CXCR2; assay: FACS competition vs 3 nM FMAT-Blue Gro-α
Description: (§1) Multivalent anti-CXCR2Nanobodies were titrated against 3 nM FMAT-Blue-labeled Gro-α in the FACS ligand competition assay on human and cynomolgus CXCR2 (Table 14). On human CXCR2, blocking potencies range between double digit nM and sub-nM whereas on cynomolgus CXCR2, they range between single and double digit nM.

[9] = biological target: T3, Cynomolgus CXCR2; assay: FACS competition vs 3 nM FMAT-Blue Gro-α
Description: as §1

[10] = biological target: T1, Human CXCR2; assay: cell-based or functional assay; remark: listed apart in the source
[11] = biological target: T1, Human CXCR2; assay: FACS competition vs 3 nM FMAT-Blue Gro-α; remark: listed apart in the source
Description: as §1, with “Purified monovalent” for “Multivalent”, “10).” for “14).”

Row | FACS Gro-α competition (% inhibition) [1] [%] | ratio of binding signal relative to blank control [2] [ratio] | FLIPR % inhibition of max [3] [%] | FLIPR IC50 (GRO-α induced calcium release) [3] [nM] | FLIPR % inhibition of max [4] [%] | FLIPR IC50 (GRO-α induced calcium release) [4] [nM] | [35S]GTPγS % inhibition of max (GRO-α) [5] [%] | [35S]GTPγS IC50 (GRO-α) [5] [nM] | Human WBSC IC50 (rhGROα) [6] [nM] | Cynomologus WBSC IC50 (rhGROα) [7] [nM] | % inhibition of max [8] [%] | IC50 [8] [nM] | % inhibition of max [9] [%] | IC50 [9] [nM] | Binder | further results
1 | 50.5 | 1.7 | – | – | – | – | – | – | – | – | – | – | – | – | 139H2 (VHH, Tested as periplasmic extract only; also called 139H02; not shown: C-terminal c-myc tag and His6 tag coded by the vector) VHH: EVQLVESGGGLVQAGGSLRLSCAASGRTFSNYAMGWFRQATGKEREFVAAINKSGGNTHYAGSVKGRFTISRDNAKNTVYLQMNSLKPRDTAVYYCAASRTNPKPDYWGQGTQVTVSS | –
2 | 55.8 | 1.2 | – | – | – | – | – | – | – | – | – | – | – | – | 137A8 (VHH, Tested as periplasmic extract only; also called 137A08; not shown: C-terminal c-myc tag and His6 tag coded by the vector) VHH: EVQLVESGGGLVQPGGSLRLSCAASGSTLAYYTVGWFRRAPGKEREGISCISSSDGSTYYADSVKGRFTISRDNAKNTVYLQMNSLKPEDTAVYYCAADRRTDCKKGRVGSGSWGQGTQVTVSS | –
3 | – | – | 100 | 17.9 | 100 | 4.46 | 100 | 1.01 | 0.345 | 0.42 | 100 | 0.65 | 99 | 2.2 | CXCR20033 (bispecific antibody, Biparatopic: two VHH joined by a GlySer linker; also called 163E3-35GS-2B2; 163E3-2B2; not shown: C-terminal c-myc tag and His6 tag coded by pAX100) EVQLVESGGGLVQPGGSLRLSCVASGRIFSSNAMGWFRQAPGKEREFVAAITWRSGGSAYYADSAKGRFTISRDNAKNTVYLQMNSLKPEDTAVYYCAAGGSSWLSFPPDYWGQGTQVTVSSGGGGSGGGGSGGGGSGGGGSGGGGSGGGGSGGGGSEVQLVESGGELVQPGGSLRLSCAASGSILTINAMGWYRQAPGKQRELVVRRTRGGSTTYQDSVKGRFTISADIAKKTMYLQMNSLKPEDTAVYYCMLDDRGGVYWGQGTQVTVSS | Human Chemotaxis IC50 (rhGROα) [6]: 0.15 nM
4 | – | – | 100 | 11.8 | 100 | 9.47 | 100 | 0.995 | 0.29 | 0.44 | 100 | 0.8 | 99 | 2.55 | CXCR20034 (bispecific antibody, Biparatopic: two VHH joined by a GlySer linker; also called 163D2-35GS-2B2; 163D2-2B2; not shown: C-terminal c-myc tag and His6 tag coded by pAX100) EVQLVESGGGLVQAGGSLRLSCAASGRTFSDYAMGWFRQAPGKEREFVAAITWNGGRVFYTASVKGRFTISRDNAKNTMYLQMNSLKPEDTAVYYCAADKDRRTDYLGHPVAYWGQGTQVTVSSGGGGSGGGGSGGGGSGGGGSGGGGSGGGGSGGGGSEVQLVESGGELVQPGGSLRLSCAASGSILTINAMGWYRQAPGKQRELVVRRTRGGSTTYQDSVKGRFTISADIAKKTMYLQMNSLKPEDTAVYYCMLDDRGGVYWGQGTQVTVSS | Human Chemotaxis IC50 (rhGROα) [6]: 0.143 nM
5 | 78.5 | 1 | – | – | – | – | – | – | – | – | – | – | – | – | 139A8 (VHH, Tested as periplasmic extract only; also called 139A08; not shown: C-terminal c-myc tag and His6 tag coded by the vector) VHH: EVQLVESGGGLVQAGGSLRLSCAASGRSFSRSAMGWLRQAPGKEREFVAGISWGGDNSYYADSVKGRFTISRDNAKNTVSLQMNSLKPQDTAVYYCAARYRGGAAVAGWEYWGQGTQVTVSS | –
6 | 75.8 | 0.8 | – | – | – | – | – | – | – | – | – | – | – | – | 159B10 (VHH, Tested as periplasmic extract only; not shown: C-terminal c-myc tag and His6 tag coded by the vector) VHH: EVQLVESGGGLVQPGGSLRLSCAASGRTFSSLSMGWFRQAPGKERAFVAALTRNGGYRYYADSVKGRFTISRDVAKKTLYLQMNSLKPEDTAVYYCAADSLSGSDYLGTNLDYWGQGTQVTVSS | –
7 | 56.8 | 0.8 | – | – | – | – | – | – | – | – | – | – | – | – | 139D5 (VHH, Tested as periplasmic extract only; also called 139D05; not shown: C-terminal c-myc tag and His6 tag coded by the vector) VHH: EVKLVESGGGLVQAGGSLRLSCALSGRIGSINAMGWYRQVSGQQRELVAVSRSGGSTDIADSVKGRFTISRDNGKNTVYLQMDSLKPEDTAVYYCYAHTSSYSNWRVYNNDYWGQGTQVTVSS | –
8 | – | – | 100 | 21.9 | 100 | 17 | 100 | 1.38 | 0.43 | 1.72 | 98.5 | 1.63 | 96 | 3.8 | CXCR20028 (other, Biparatopic: two VHH joined by a GlySer linker; also called 97A9-35GS-54B12; 97A9-54B12; not shown: C-terminal c-myc tag and His6 tag coded by pAX100) EVQLVESGGGLVQPGGSLRLSCVASGSIVRINTMGWYRQTPGKQRELVADITSGGNINYIDAVKGRFTISRDNTKNTVYLQMNSLKPEDTAVYYCNAEIVVLVGVWTQRARTGNYWGQGTQVTVSSGGGGSGGGGSGGGGSGGGGSGGGGSGGGGSGGGGSEVQLVESGGGLVQAGGSLTLSCAVSGSTFRINTMGWYRRAPGKQRELVAARDRGGYINYVDSVKGRFTVSRDNAKPTMYLQMNSLKPEDTAVYYCHAGTQDRTGRNFDRWGQGTQVTVSS | –
9 | 90.3 | 1 | – | – | – | – | – | – | – | – | – | – | – | – | 137B7 (VHH, Tested as periplasmic extract (pAX50) and as purified His6-tagged protein (pAX100); also called 137B07; not shown: C-terminal c-myc tag and His6 tag coded by the vector) VHH: EVQLVESGGGLVQPGGSVRLSCVASGIIFRLSALGWTRQGPGKAREWVAGINSDGTTNYADPVKGRFTISRDNAKNTIYLHMDMLKPEDTAVYYCASGKYRGQGTQVTVSS | FLIPR % inhibition max [10]: 100%; FLIPR IC50 (GRO-α induced calcium release) [10]: 6.71 nM; % inhibition of max [11]: 93.5%; IC50 [11]: 1.11 nM
10 | – | – | 100 | 11.8 | 100 | 6.36 | 100 | 1.02 | 0.215 | 0.56 | 99.5 | 0.786 | 98.5 | 1.74 | CXCR20030 (other, Biparatopic: two VHH joined by a GlySer linker; also called 163D2-35GS-54B12; 163D2-54B12; not shown: C-terminal c-myc tag and His6 tag coded by pAX100) EVQLVESGGGLVQAGGSLRLSCAASGRTFSDYAMGWFRQAPGKEREFVAAITWNGGRVFYTASVKGRFTISRDNAKNTMYLQMNSLKPEDTAVYYCAADKDRRTDYLGHPVAYWGQGTQVTVSSGGGGSGGGGSGGGGSGGGGSGGGGSGGGGSGGGGSEVQLVESGGGLVQAGGSLTLSCAVSGSTFRINTMGWYRRAPGKQRELVAARDRGGYINYVDSVKGRFTVSRDNAKPTMYLQMNSLKPEDTAVYYCHAGTQDRTGRNFDRWGQGTQVTVSS | [35S]GTPγS % inhibition of max (ENA-78) [5]: 100%; [35S]GTPγS % inhibition of max (IL-8) [5]: 100%; [35S]GTPγS IC50 (ENA-78) [5]: 1.3 nM; [35S]GTPγS IC50 (IL-8) [5]: 1.09 nM
